# Source: patent US20220363761A1 (MERUS N V, published 2022)
# Where two headings read alike, the source gives them in different places.
# B1: PD-1xLAG-3 bispecific antibody SEQ ID NO: 1 × SEQ ID NO: 14 (bispecific antibody)
# heavy (part 1 of 2) 1: not shown
# heavy (part 2 of 2) 1: not shown
# heavy (part 1 of 2) 2: EVQLVQSGSELKKPGASVKVSCKASGYTFTTNALNWVRQAPGQGLEWMGWINTHTGNPTYAQGFIGRFVFSLDTSVSTAYLQIRSLKAEDTAVYYCAREPNWGVYFDYWGQGTLVTVSSASTKGPSVFPLAPSSKSTSGGTAALGCLVKDYFPEPVTVSWNSGALTSGVHTFPAVLQSSGLYSLSSVVTVPSSSLGTQTYICNVNHKPSNTKVDKRV
# heavy (part 2 of 2) 2: not shown
# light: not shown
# notes: IgG1; common light chain; also called PB4; not shown: hinge (IgG1)
# B2: PD-1xLAG-3 bispecific antibody SEQ ID NO: 6 × SEQ ID NO: 14 (bispecific antibody)
# heavy (part 1 of 2) 1: not shown
# heavy (part 2 of 2) 1: not shown
# heavy (part 1 of 2) 2: EVQLVQSGSELKKPGASVKVSCKASGYTFTTNALNWVRQAPGQGLEWMGWINTHTGNPTYAQGFIGRFVFSLDTSVSTAYLQIRSLKAEDTAVYYCAREPNWGVYFDYWGQGTLVTVSSASTKGPSVFPLAPSSKSTSGGTAALGCLVKDYFPEPVTVSWNSGALTSGVHTFPAVLQSSGLYSLSSVVTVPSSSLGTQTYICNVNHKPSNTKVDKRV
# heavy (part 2 of 2) 2: not shown
# light: not shown
# notes: IgG1; common light chain; also called PB10; PD-1xLAG-3 bispecific antibody 2; not shown: hinge (IgG1)
# B3: PD-1xLAG-3 bispecific antibody SEQ ID NO: 1 × SEQ ID NO: 11 (bispecific antibody)
# heavy (part 1 of 2) 1: not shown
# heavy (part 2 of 2) 1: not shown
# heavy (part 1 of 2) 2: QVQLQESGPGLVRPSETLSLTCTVSGGSISSYSWSWIRQPPGKGLEWIGYIDYSGSTNYNPSLKSRVTISVDTSKTQFSLKLSSVSAADTAVYYCAKDLLYKWNYVEGFDIWGQGTTVTVSSASTKGPSVFPLAPSSKSTSGGTAALGCLVKDYFPEPVTVSWNSGALTSGVHTFPAVLQSSGLYSLSSVVTVPSSSLGTQTYICNVNHKPSNTKVDKRV
# heavy (part 2 of 2) 2: not shown
# light: not shown
# notes: IgG1; common light chain; also called PB1; not shown: hinge (IgG1)
# B4: PD-1xLAG-3 bispecific antibody SEQ ID NO: 5 × SEQ ID NO: 11 (bispecific antibody)
# heavy (part 1 of 2) 1: not shown
# heavy (part 2 of 2) 1: not shown
# heavy (part 1 of 2) 2: QVQLQESGPGLVRPSETLSLTCTVSGGSISSYSWSWIRQPPGKGLEWIGYIDYSGSTNYNPSLKSRVTISVDTSKTQFSLKLSSVSAADTAVYYCAKDLLYKWNYVEGFDIWGQGTTVTVSSASTKGPSVFPLAPSSKSTSGGTAALGCLVKDYFPEPVTVSWNSGALTSGVHTFPAVLQSSGLYSLSSVVTVPSSSLGTQTYICNVNHKPSNTKVDKRV
# heavy (part 2 of 2) 2: not shown
# light: not shown
# notes: IgG1; common light chain; also called PB13; not shown: hinge (IgG1)
# Tests used:
# [1] = target: T1, human PD-1 (expressed on cells) (human, UniProt Q15116 25-288); assay: cell-based or functional assay
# T1 sequence (Q15116 25-288): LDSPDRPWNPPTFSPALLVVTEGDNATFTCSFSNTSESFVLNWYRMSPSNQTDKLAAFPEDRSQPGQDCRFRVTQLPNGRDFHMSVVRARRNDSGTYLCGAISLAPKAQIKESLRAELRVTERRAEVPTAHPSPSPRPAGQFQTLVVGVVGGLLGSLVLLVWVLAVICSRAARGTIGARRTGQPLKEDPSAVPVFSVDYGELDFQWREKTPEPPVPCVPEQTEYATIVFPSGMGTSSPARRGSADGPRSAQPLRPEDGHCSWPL
# [2] = target: T1, human PD-1 (expressed on cells); assay: cell-based or functional assay; remark: listed apart in the source
# [3] = target: T2, human LAG-3 (expressed on 293FF cells) (human, UniProt P18627 23-525); assay: FACS on 293FF cells stably transfected with human LAG-3
# T2 construct: whole, on cells; also called CD223
# T2 sequence (looked up): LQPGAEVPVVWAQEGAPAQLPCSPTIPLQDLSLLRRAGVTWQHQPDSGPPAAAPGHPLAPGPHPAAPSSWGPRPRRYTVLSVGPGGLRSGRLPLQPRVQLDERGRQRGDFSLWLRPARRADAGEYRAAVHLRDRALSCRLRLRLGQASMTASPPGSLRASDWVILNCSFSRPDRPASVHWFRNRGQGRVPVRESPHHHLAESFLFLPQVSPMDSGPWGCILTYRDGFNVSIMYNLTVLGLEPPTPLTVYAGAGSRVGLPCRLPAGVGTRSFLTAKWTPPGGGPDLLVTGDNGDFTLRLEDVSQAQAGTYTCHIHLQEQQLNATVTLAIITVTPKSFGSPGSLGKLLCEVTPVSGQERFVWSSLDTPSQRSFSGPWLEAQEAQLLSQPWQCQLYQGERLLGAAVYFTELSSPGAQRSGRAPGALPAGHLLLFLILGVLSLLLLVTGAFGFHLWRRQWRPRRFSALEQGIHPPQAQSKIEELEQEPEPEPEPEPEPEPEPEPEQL
# Experimental: (§1) The binding of bispecific antibodies was analyzed by FACS using cell lines stably transfected with human LAG-3 or rhesus LAG-3, or transiently transfected with human PD-1 or cynomolgus PD-1. […] IgG specific binding was measured by FACS using a 8-step, 5-fold dilution starting at 50 ug/ml. A goat-anti-human PE was used as secondary detection antibody. Cells w/o staining or only secondary detection antibody were included as negative assay controls.
# [4] = target: cynomolgus PD-1 (expressed on 293FF cells) (cynomolgus, UniProt B0LAJ3 25-288); assay: FACS on 293FF cells transiently transfected with cynomolgus PD-1
# Chain of cynomolgus PD-1 (expressed on 293FF cells) (B0LAJ3 entry or part of it limits assumed): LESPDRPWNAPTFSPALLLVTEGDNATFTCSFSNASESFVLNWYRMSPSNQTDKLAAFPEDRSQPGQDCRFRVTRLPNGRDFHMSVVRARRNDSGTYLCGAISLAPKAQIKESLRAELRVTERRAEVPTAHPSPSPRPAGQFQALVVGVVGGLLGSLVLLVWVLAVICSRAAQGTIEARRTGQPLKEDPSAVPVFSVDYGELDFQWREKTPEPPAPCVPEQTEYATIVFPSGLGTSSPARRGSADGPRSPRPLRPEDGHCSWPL
# Experimental: as §1
# [5] = target: T1, human PD-1 (expressed on cells); assay: cell-based or functional assay; remark: listed apart in the source
Binder,"EC50 (read off the curve); PD-1/PD-L1 reporter assay, luciferase fold induction [1] [µg/mL]","AUC relative to positive control, PD-1/LAG-3 reporter assay [2] [%]",EC50 (nM) PD-1/LAG-3 reporter assay [2] [nM],binding result [3],binding result [4],"EC50 (read off the curve); PD-1/PD-L1 reporter assay, luciferase fold induction [5] [µg/mL]"
B1,~1,271,9.96,binds,binds,–
B2,~1,246,18,binds,binds,–
B3,–,215,19.1,binds,binds,~0.5
B4,–,218,10.1,binds,binds,~0.7
